These are literature values, as cited in paper PMC3295331.

In general, Kd refers to the constant that tells how readily two partners part at equilibrium.

The data set has as its target Cav3.1 (UniProt O54898).
UniProt O54898, sequence (O54898 whole entry): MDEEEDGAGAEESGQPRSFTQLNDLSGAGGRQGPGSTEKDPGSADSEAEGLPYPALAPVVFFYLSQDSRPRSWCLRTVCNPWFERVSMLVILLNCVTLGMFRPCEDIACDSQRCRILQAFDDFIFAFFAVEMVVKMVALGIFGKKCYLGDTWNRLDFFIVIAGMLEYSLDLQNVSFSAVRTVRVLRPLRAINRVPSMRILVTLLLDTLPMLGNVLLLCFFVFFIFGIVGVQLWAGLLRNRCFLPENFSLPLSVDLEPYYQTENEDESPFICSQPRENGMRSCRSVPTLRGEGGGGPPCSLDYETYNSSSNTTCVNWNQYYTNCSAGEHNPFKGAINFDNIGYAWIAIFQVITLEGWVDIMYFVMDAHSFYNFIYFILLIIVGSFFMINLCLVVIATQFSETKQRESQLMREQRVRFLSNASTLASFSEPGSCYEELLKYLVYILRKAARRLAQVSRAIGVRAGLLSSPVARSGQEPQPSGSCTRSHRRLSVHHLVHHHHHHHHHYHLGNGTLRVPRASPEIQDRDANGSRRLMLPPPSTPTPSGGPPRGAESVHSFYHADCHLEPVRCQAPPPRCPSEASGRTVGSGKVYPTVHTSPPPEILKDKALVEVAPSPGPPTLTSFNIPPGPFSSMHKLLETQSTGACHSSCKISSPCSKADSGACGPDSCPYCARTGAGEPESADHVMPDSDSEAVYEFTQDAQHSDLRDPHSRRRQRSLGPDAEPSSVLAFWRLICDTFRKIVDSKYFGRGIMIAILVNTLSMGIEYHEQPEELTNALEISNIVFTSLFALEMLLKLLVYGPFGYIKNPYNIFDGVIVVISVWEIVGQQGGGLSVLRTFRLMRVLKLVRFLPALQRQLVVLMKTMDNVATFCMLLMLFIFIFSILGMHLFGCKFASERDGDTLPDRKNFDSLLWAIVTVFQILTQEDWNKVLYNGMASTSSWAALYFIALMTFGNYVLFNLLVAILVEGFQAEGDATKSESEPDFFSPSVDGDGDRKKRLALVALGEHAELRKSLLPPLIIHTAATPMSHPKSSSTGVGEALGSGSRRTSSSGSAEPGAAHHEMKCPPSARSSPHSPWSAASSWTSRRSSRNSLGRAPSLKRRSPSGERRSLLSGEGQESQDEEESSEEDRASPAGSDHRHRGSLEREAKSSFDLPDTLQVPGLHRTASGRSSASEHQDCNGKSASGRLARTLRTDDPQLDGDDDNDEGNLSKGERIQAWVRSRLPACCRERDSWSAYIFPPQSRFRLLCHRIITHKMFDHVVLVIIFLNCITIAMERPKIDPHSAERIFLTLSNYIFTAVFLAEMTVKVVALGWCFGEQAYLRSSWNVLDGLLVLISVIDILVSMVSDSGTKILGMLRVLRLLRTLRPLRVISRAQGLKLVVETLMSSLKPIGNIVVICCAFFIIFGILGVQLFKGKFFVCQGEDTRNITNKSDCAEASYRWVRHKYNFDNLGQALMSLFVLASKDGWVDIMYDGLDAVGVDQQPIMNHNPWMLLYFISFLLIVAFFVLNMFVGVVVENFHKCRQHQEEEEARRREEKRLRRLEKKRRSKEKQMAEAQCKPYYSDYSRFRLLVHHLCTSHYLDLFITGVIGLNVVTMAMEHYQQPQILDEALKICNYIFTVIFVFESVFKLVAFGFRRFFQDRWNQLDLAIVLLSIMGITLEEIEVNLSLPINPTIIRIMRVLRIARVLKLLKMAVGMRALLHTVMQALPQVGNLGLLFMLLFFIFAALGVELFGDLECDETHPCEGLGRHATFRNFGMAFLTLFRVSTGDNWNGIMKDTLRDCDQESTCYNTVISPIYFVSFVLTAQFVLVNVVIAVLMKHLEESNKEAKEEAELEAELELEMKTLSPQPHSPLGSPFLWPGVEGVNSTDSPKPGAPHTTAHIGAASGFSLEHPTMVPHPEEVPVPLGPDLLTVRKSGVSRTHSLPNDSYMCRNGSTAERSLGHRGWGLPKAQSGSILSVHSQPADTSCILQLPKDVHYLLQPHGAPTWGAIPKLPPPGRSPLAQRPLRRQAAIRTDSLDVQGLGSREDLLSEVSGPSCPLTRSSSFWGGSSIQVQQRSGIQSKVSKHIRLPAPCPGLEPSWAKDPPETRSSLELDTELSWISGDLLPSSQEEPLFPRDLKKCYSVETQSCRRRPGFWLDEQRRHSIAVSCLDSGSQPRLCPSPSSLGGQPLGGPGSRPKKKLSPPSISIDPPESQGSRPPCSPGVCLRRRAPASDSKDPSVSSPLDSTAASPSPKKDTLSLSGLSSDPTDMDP

For the substance Kurtoxin (from UniProt P58910), the Kd was 15 nM.
